Measured values taken from article doi:10.1101/2021.04.19.439022, “Bacteriophage λ RexA and RexB Functions Assist the Transition from Lysogeny to Lytic Growth”.

T1: RexA (Bacteriophage lambda, UniProt P68924 1-279)
T1 sequence: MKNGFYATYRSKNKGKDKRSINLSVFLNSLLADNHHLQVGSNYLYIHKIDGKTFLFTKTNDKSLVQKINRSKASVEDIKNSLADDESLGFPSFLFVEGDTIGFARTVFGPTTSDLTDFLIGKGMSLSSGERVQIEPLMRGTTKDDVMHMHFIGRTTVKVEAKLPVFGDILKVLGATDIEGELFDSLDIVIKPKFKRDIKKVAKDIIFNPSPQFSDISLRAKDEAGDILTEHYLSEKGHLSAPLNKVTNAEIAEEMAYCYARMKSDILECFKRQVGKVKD

B1: OR1-OR2 (dsDNA)
DNA 1: AGATCTACCGGTAGAGCTT
DNA 2: TAAGCTCTACCGGTAGATC
modifications: m5C at position 8 of upper strand and position 10 of lower strand
B2: OR1-OR2 scrambled (dsDNA)
DNA 1: AGATCTACCGGTAGAGCTT
DNA 2: TAAGCTCTACCGGTAGATC

Molecular target: T1, RexA
Test: filter binding; 2 mM Mg2+; Filter binding: 25 mM MES pH 6.5, 2.0 mM MgCl2, 0.1 mM DTT, 0.01 mM EDTA, 40 ug/mL BSA, 30 C, 10 min, 14.5 nM unlabeled + 0.5 nM labeled DNA; SEC: Superdex 200
Conditions: protein: recombinant, tags: C-terminal 6xHis (pET21b), chain copies: 2, 5' overhang 1 nt at both ends

Binder	binding result	binding result (label: 5'-32P)
B1	binds	–
B2	–	binds
